Test results from patent publication US20220144957A1 (IMMUNECENT BIOTECHNOLOGY, published 2022).
Read-outs that look alike come from different tables or passages of the source.

T1: human/mouse chimeric IFNAR1 variant IFNAR1-m149-214 (human, with residues 149-214 replaced …, UniProt P17181 28-557)
T1 construct: expressed on 293T cells
T1 chain: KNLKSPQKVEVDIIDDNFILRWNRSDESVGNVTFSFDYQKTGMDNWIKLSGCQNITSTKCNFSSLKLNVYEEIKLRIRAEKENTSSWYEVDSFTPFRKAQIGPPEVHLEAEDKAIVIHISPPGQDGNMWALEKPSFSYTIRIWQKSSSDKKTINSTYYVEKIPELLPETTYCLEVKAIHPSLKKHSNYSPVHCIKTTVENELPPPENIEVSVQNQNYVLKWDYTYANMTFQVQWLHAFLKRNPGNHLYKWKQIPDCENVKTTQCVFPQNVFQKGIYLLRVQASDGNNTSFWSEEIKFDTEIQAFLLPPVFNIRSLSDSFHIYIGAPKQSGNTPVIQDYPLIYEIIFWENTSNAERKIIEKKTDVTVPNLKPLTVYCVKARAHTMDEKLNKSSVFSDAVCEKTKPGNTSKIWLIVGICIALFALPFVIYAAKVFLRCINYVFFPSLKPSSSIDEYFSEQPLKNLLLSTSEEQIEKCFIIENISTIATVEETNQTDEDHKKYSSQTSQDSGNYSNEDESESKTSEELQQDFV

T2: human IFNAR1, full length (IFNAR1-aa1-557) (human, UniProt P17181 28-557)
T2 sequence (looked up): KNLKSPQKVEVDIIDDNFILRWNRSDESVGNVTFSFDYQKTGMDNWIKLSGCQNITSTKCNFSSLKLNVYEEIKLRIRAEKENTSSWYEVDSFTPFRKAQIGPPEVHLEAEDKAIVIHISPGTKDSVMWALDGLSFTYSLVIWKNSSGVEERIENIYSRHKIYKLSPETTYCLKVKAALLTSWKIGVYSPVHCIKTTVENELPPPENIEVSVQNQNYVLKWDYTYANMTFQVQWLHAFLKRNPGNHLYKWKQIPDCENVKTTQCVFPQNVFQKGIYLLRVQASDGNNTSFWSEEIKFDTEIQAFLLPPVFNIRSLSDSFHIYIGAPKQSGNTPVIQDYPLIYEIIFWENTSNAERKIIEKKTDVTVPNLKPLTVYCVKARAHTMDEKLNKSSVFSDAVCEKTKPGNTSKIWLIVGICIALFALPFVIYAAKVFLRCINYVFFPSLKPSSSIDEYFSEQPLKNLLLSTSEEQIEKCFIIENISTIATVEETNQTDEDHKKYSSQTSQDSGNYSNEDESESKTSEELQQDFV


Experiments:
[1] = target: T1, human/mouse chimeric IFNAR1 variant …; assay: flow cytometry, 293T cells overexpressing IFNAR1-m149-214, MFI
Protocol: (§1) After the incubation, the cells were centrifuged and re-suspended with 200 μL of FACS buffer, before next centrifugation and re-suspension.
(§2) PE-labeled goat anti-mouse IgG antibody (Biolegend) diluted in FACS buffer at 1:400 was added to each well. The cells were re-suspended and incubated at 4° C. for 30 min in the dark. After the incubation, the plate was centrifuged, the supernatant was discarded, and the cells were washed once as described above and re-suspended by adding 200 μL FACS buffer. Finally, the re-suspended cells were analyzed using a flow cytometer Guava (Millipore) for cellular GFP and PE signals.

[2] = target: T2, human IFNAR1, full length …; assay: cell-based or functional assay
[3] = target: T1, human/mouse chimeric IFNAR1 variant …; assay: flow cytometry, 293T cells overexpressing IFNAR1-m149-214, MFI
Protocol: as §1, §2

binding result [1] | fold decrease in percentage of GFP positive reporter cells with serum from SLE patients [2] | binding result [3] | Binder
binds | ~3 fold |  | anti-human IFNAR1 monoclonal antibody 7G4 (antibody, V domains shown, Mouse monoclonal antibody from hybridoma CGMCC No. 16286) VH: QVQLQQPGAELVKPGAPVKLSCKASGYTFTSYWMNWVRQRPGRGLEWIGKIDPSDSETHFNQKFRDKATLTVDKSSTTAYIQLSSLTSEDSAVYYCARGGRISFDYDAALDYWGQGTSVTVSS VL: DILMTQSSSSFSVSLGDRVTITCKSSEVIYNRLAWFQQKPGNAPRLLISGATTLESGFPSRFSGSGSGKDYTLSITSLQIEDVSTYYCQQYWNKPFTFGSGTKLEVK
 | ~3 fold | binds | anti-human IFNAR1 monoclonal antibody 10C5 (antibody, V domains shown, Mouse monoclonal antibody from hybridoma CGMCC No. 16287) VH: QVQLQQPGTELVKPGSPVKLSCKASGYTFTSFWLNWVQQRPGRGLEWIGKIDPSDSEIRYNQKFKDKATLTVDKSSNTAYIQLSSLTSEDSAVYYCARGGGIYYDYDGAMDYWGQGTSVTVSS VL: DIQMTQSSSSFSVSLGDRLTITCKASEVIYNRLAWFQQKPGNAPRLLISGATSLETGVPSRFSGSGSRKDYTLSISSLQTEDVATYYCQQYWSSPFTFGSGTKLEIK
